Reference: the supplement of paper PMC10567573
± gives the standard deviation.

Test: protein stability index of a GFP-peptide fusion (GPS, HEK-293T) (PSI 1-6); higher = more stable
[1] = treatment: DMSO, c terminus: a fixed tail appended
[2] = treatment: MLN4924 1 uM, 8 h, c terminus: a fixed tail appended
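Note: 24-mer peptide tiles fused after GFP, lentivirally expressed, FACS-sorted into six equal bins by GFP/DsRed ratio, decoded by Illumina sequencing, PSI is the read-weighted mean bin number.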

Sequence | protein stability index [1] | protein stability index [2] | protein stability index (treatment: DMSO, c terminus: native) | protein stability index (treatment: MLN4924 1 uM, 8 h, c terminus: native)
GGWETVFRPVSETCTDRSGISTGH [FUT8] | 3.48 ± 0.35 | 3.43 ± 0.22 | – | –
QVENWSAFAPDFKELDENVEYEER [RBBP5] | 5.05 ± 0.36 | 5.15 ± 0.48 | – | –
GRTHSACDALRTLAEARRLFPGRV [RSAD1] | 2.99 ± 0.29 | 3.44 ± 0.29 | – | –
GVGGKRSSKSDADSGFLGLRPTSV [NOP53] | 4.16 ± 0.44 | 4.03 ± 0.27 | – | –
LRYQFSRPGPQSVPLQLSAHWQCG [FCHO1] | 2.2 ± 0.09 | 2.12 ± 0.13 | – | –
FGCFFYVYYIFERLCAPLFRNIKQ [SOAT1] | 2.37 ± 0.2 | 2.69 ± 0.068 | – | –
LQKQGKYSGVGLLDHMVSIYLLI [RNF180] | – | – | 2.31 ± 0.92 | 2.88 ± 0.81
VDKYVNSFVLKNFPALLSTGEFLK [KLHL13] | 2.01 ± 0.45 | 2.1 ± 0.6 | – | –
RRARINESLQELRLLLAGAEVQAK [HES6] | 2.62 ± 0.3 | 2.84 ± 0.77 | – | –
KKRKRQEKIDKLEQDMERRKADFK [ZC3H15] | 4.7 ± 0.4 | 4.77 ± 0.1 | – | –
GQDTMLKAMFSGRVEVLTDAGGWV [KCTD13] | 2.45 ± 0.26 | 2.36 ± 0.35 | – | –
HRSACSSAAVRGHPRALPPDARPH [HAGHL] | 3.81 ± 0.19 | 3.77 ± 0.17 | – | –
NLFVMQVEMDIYTALKKWMFLQLV [GMCL1] | 2.74 ± 0.66 | 2.17 ± 0.39 | – | –
IGGSGFLGQHMVEQLLARGYAVNV [NSDHL] | 2.16 ± 0.054 | 2.23 ± 0.2 | – | –
NFARLQTCISELRMLQREGCFRSQ [M1AP] | 2.15 ± 0.31 | 2.13 ± 0.2 | – | –
FTDTSIILFLNKKDLFEEKIKKSP [GNAI1] | 2.2 ± 0.97 | 2.35 ± 1.1 | – | –
LYPSAPILGGSGPVRKLYDDCSST [ESRRG] | 3.82 ± 0.3 | 3.72 ± 0.24 | – | –
GPMCDLLWSDPDDRGGWGISPRGA [PPP2CA] | 3.1 ± 0.42 | 3.21 ± 0.33 | – | –
DITEGDRKPDYTAYVAMIPQCIKE [ATF4] | 3.28 ± 0.27 | 3.38 ± 0.37 | – | –
LAKEIRVKAEPFIKWLKEAEEESS [EIF5] | 3.33 ± 0.2 | 3.9 ± 0.52 | – | –
EQFPELMNMLWSRMLKDNKKNWRR [CLINT1] | 2.14 ± 0.037 | 2.39 ± 0.26 | – | –
EGVDIKNGTEDLPYAMKPIDYYTE [NSDHL] | 4.72 ± 0.25 | 4.76 ± 0.27 | – | –

Sequence | protein stability index [1] | protein stability index [2] | protein stability index (treatment: DMSO, c terminus: native) | protein stability index (treatment: MLN4924 1 uM, 8 h, c terminus: native)
WWALSTCGYFQVVNYTQGLWEKVM [SLC19A2] | 2.75 ± 1.3 | 2.45 ± 0.73 | – | –
AFKAAALIQRWYRRYVARLEMRRR [PPEF2] | 3.55 ± 0.57 | 4.15 ± 0.59 | – | –
TIGFGDYVALQTKGALQKKPLYVA [KCNK9] | 2.29 ± 0.19 | 2.63 ± 0.28 | – | –
DEIYRVLRYVNSTRAPQRAHEVLQ [FBXO28] | 2.43 ± 0.28 | 2.44 ± 0.33 | – | –
FKPLNSTPATTTEPPKPTFPAYTQ [ZNF207] | 3.84 ± 0.26 | 3.9 ± 0.14 | – | –
VRVLESLLVSLVTTVVVFVASMVL [CLCN6] | 3.13 ± 0.4 | 3.3 ± 0.34 | – | –
KSQRQPRTSPSCAFRSDDTKGHPR [CDC14A] | 4.49 ± 0.16 | 4.62 ± 0.2 | – | –
VLVLIFNAAKTCPTMPALFSDHTF [INTS4] | 3.16 ± 0.42 | 3.16 ± 0.48 | – | –
LPPPSAPSLQPSRKLSPTEPKNYG [SCAMP3] | 4.79 ± 0.16 | 4.86 ± 0.24 | – | –
RVRKEAMMGLAQIYKKYALQSAAG [PDS5B] | 2.2 ± 0.37 | 2.14 ± 0.34 | – | –
VDSFETQRNGLVFIYDMCGSNYAN [PTPN9] | 2.23 ± 0.24 | 2.05 ± 0.28 | – | –
GTRGRLESAQATFQAHRDKYEKLR [ARFIP2] | 4.27 ± 0.31 | 4.44 ± 0.28 | – | –
EFPQFEPQRYPACAQMLPPNLSPH [TRAF3IP2] | 3.22 ± 0.18 | 3.1 ± 0.36 | – | –
KKREFRFHPIKETVVEEPVDITPY [INTS3] | 2.83 ± 0.51 | 3.59 ± 0.68 | – | –
GLEQFINKVAGHPLAQNERCLHMF [SNX3] | 2.72 ± 0.61 | 2.21 ± 0.11 | – | –
AGPELDEMLREVDLNGDGTVDFDE [CABP4] | 5.67 ± 0.23 | 5.36 ± 0.11 | – | –
LAFFPFLHRLFREKSLDQLKSISA [PHTF1] | 2.46 ± 0.3 | 2.26 ± 0.35 | – | –
REITGVQAQPGEATSGPPGIQPGQ [PALM] | 5.37 ± 0.26 | 5.23 ± 0.2 | – | –
DIKRGIPNYEFKLGKITFIRNSRP [UFD1] | 2.27 ± 0.17 | 2.34 ± 0.21 | – | –
LFHRLDEDWDSALFAELGYFTDTD [ATF6] | 2.91 ± 0.48 | 3.02 ± 0.26 | – | –
TGPQLPESLEDVAMYISQEEWGHQ [ZNF263] | 4.67 ± 0.1 | 4.52 ± 0.29 | – | –
LLAEKEEKLQKEQKELQDVGQSLR [SASS6] | 5.45 ± 0.23 | 5.35 ± 0.28 | – | –

Sequence | protein stability index [1] | protein stability index [2] | protein stability index (treatment: DMSO, c terminus: native) | protein stability index (treatment: MLN4924 1 uM, 8 h, c terminus: native)
GKVAVGQDDLTVVLNEEGICTQKC [VPS39] | 4.91 ± 0.22 | 4.79 ± 0.28 | – | –
MESKRLRLLQEEDRRKKIARMGFN [DCAF4] | 3.44 ± 0.36 | 3.73 ± 0.48 | – | –
APRPGPPAGTPPPTARHFQEHPRQ [MOSPD3] | 4.99 ± 0.36 | 4.86 ± 0.35 | – | –
TPEPDTCHELLGHVPLLAEPSFAQ [TPH1] | 3.96 ± 0.27 | 3.91 ± 0.2 | – | –
QELLDTVLVNLVPAHKNLNKQAYD [PDS5B] | 2.95 ± 0.34 | 3.02 ± 0.3 | – | –
DEQLNEFHCLWDDSFPEGPERLHA [HDAC6] | 4.55 ± 0.3 | 4.46 ± 0.35 | – | –
IIEELGEQRDQLERTKSRLVNTSE [VTI1B] | 4.57 ± 0.41 | 4.63 ± 0.15 | – | –
RPSTYYELLGVHPGASTEEVKRAF [DNAJC4] | 3.48 ± 0.21 | 3.86 ± 0.23 | – | –
GKRMEFTSSCPNVSERSFDNVRSL [CRYBA1] | 4.12 ± 0.3 | 4.17 ± 0.28 | – | –
LINYQDDAELATRAIPELTKLLND [CTNNB1] | 3.61 ± 0.37 | 3.59 ± 0.31 | – | –
GGYRPAEDKIFPVPEEPPVKKLMR [ZBED1] | 3.99 ± 0.13 | 4.36 ± 0.3 | – | –
VDQTGVSGGVASFICQATGDPRPK [PTPRD] | 4.62 ± 0.17 | 4.81 ± 0.2 | – | –
PETMTCRLSNNQRYLFLDGDSHYE [ZFYVE21] | 2.52 ± 0.45 | 2.8 ± 0.33 | – | –
GALTGKENNMLQPETHIFTAPEEV [DMRTC1] | 5.19 ± 0.17 | 5.01 ± 0.16 | – | –
TCAPSVSYFKCVQKEVLPSMRKIV [CCND1] | 2.33 ± 0.13 | 2.35 ± 0.33 | – | –
MKKIKKLENDTISKQLTLEQLRRE [CCDC6] | 3.71 ± 1.1 | 3.84 ± 0.67 | – | –
DTFQKELMCFDPDTDKWIQKAPMT [KLHL13] | 4.16 ± 0.28 | 3.87 ± 0.15 | – | –
EMIQTSKTEITDLRRTMQELEIEL [KRT15] | 3.65 ± 0.25 | 3.65 ± 0.13 | – | –
ACSAPGGLVPSEKPPMMPQAQPAI [C2CD2L] | 4.24 ± 0.15 | 4.18 ± 0.19 | – | –
ILSKMPKPKPPPNSEGEQGPNGSQ [CCNC] | 5.07 ± 0.23 | 5.1 ± 0.12 | – | –
LSPEVLRKEAYGKPVDIWACGVIL [CAMK2B] | 2.62 ± 0.71 | 2.51 ± 0.4 | – | –
